According to US7189519B2, “Bead-based detection of ligand-GPCR-G protein complexes” (STC.UNM, priority 1998, dated 2007):

Biological target: T1, FPR-αi2 (R-α) fusion protein (UniProt P04897+P21462)
T1 construct: expressed in transfected cells; U937 stated only for FPR
Experiment: RGS activity assay on beads (FPR-αi2, fluorescent ligand, GTP, Gβγ beads)
Format: biochemical
Procedure: FPR-αi2 (R-α) was used in the standard assembly assay with fluorescent ligand (see FIG. 3, complex C), and with the amounts of GTP and RGS shown in FIG. 7, using beads coated with Gβγ. Bead fluorescence was measured as previously described.
Standard LRG Assembly Assay. The standard 10 μl assay consisted of 2 μl of water or 10^−4M GTPγS, 6 μl of soluble receptor preparation with or without ligand, and 2 μl of beads prepared as above, with 0.7 pmol G protein used per assay, and an unknown fraction left on the beads in the proper orientation. For FPR and R-αi2 assemblies, L^F (fMLFK-FITC) was added in excess of receptor to ensure that essentially all the receptor was bound. For FPR-GFP assembly, 10^−6 M L (fMLFFGGK) was added to the receptor preparation to ensure that essentially all the receptor was bound. Each mixture was mixed by pipetting to ensure a uniform starting suspension of the beads in 96 V-well plates (Costar), and then mixed at low speed on a vortex mixer at 7° for two hours. The 10 μl assays were individually brought to 200 μl with 0.1% dodecyl maltoside in buffer A in 12×75 mm tubes for flow cytometric measurement of fluorescence of the beads. LRG assembly was defined as the difference between fluorescence without GTPγS and that with GTPγS. All determinations were done in duplicate.
RGS Activity Affects LR-αG Assemblies on Beads. As a second mechanistic problem, the role of GTP and RGS activity in regulating the assembly of βγ subunits with the receptor-Giα fusion protein was examined (FIG. 7; see also FIGS. 3, complex C and FIG. 4B). […] The data were consistent with the idea that RGS, by enhancing the cleavage of GTP, affected the GTP dose-response for the formation of the bead-based complex. The shift in the dose-response was consistent with the consumption of 10 μM or more GTP in 10 μl over 2 hours in the presence of R-α, RGS, and L. Calculating that 24 nM R-α (the total added) consumed 10 μM GTP equally in the first half hour, leaving 60 minutes for assembly on the bead, the turnover number was ˜14 min^−1 for the receptor-Giα fusion protein at 7° C.; if rates double for every 10° C. increase, this would imply about 110 min^−1 at 37° C. Calculating consumption over the entire time yields ˜5 and 40 min^−1, respectively.
The nucleotide sensitivity of the assembly of R-αi2 with βγ allowed the activity and specificity of RGS to be examined. […] This assembly format therefore has the potential for discriminating RGS antagonists. Elsewhere it is described how GTP increases access of soluble assemblies of R-αi2 to anti-αi2 antibody, consistent with the idea of Ay binding and release (Shi M, et al., submitted).

T1 sequence (P21462+P04897 fused): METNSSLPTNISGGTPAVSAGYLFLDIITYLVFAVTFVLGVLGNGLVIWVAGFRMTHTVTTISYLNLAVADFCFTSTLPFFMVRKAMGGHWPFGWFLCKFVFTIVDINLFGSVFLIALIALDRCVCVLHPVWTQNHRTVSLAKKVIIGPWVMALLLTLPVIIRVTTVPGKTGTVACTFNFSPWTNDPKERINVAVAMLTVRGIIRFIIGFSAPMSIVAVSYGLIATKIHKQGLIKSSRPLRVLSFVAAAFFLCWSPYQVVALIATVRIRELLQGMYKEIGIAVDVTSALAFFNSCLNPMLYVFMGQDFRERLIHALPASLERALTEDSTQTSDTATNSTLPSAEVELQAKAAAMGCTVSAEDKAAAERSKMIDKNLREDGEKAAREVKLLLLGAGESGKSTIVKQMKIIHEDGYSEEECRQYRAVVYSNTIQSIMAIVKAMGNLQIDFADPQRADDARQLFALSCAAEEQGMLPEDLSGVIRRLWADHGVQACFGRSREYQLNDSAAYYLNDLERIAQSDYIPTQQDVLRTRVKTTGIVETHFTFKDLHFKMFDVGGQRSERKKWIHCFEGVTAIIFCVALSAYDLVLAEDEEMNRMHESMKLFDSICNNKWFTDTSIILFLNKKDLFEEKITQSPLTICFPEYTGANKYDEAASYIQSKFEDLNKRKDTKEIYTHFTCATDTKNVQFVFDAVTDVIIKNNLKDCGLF

| Molecule | GTP consumption in the presence of LR-α |
| --- | --- |
| RGS8: regulator of G protein signaling protein (protein, UniProt P57771 1-180, looked up) Regulator of G-protein …: MAALLMPRRNKGMRTRLGCLSHKSDSCSDFTAILPDKPNRALKRLSTEEATRWADSFDVLLSHKYGVAAFRAFLKTEFSEENLEFWLACEEFKKTRSTAKLVSKAHRIFEEFVDVQAPREVNIDFQTREATRKNLQEPSLTCFDQAQGKVHSLMEKDSYPRFLRSKMYLDLLSQSQRRLS | appeared to consume GTP |
| RGS4: regulator of G protein signaling protein (protein, UniProt P49798 1-205, looked up) Regulator of G-protein …: MCKGLAGLPASCLRSAKDMKHRLGFLLQKSDSCEHNSSHNKKDKVVICQRVSQEEVKKWAESLENLISHECGLAAFKAFLKSEYSEENIDFWISCEEYKKIKSPSKLSPKAKKIYNEFISVQATKEVNLDSCTREETSRNMLEPTITCFDEAQKKIFNLMEKDSYRRFLKSRFYLDLVNPSSCGAEKQKGAKSSADCASLVPQCA | appeared to consume GTP |
| RGS7: regulator of G protein signaling protein (protein, UniProt P49802 1-495, looked up) Regulator of G-protein …: MAQGNNYGQTSNGVADESPNMLVYRKMEDVIARMQDEKNGIPIRTVKSFLSKIPSVFSGSDIVQWLIKNLTIEDPVEALHLGTLMAAHGYFFPISDHVLTLKDDGTFYRFQTPYFWPSNCWEPENTDYAVYLCKRTMQNKARLELADYEAESLARLQRAFARKWEFIFMQAEAQAKVDKKRDKIERKILDSQERAFWDVHRPVPGCVNTTEVDIKKSSRMRNPHKTRKSVYGLQNDIRSHSPTHTPTPETKPPTEDELQQQIKYWQIQLDRHRLKMSKVADSLLSYTEQYLEYDPFLLPPDPSNPWLSDDTTFWELEASKEPSQQRVKRWGFGMDEALKDPVGREQFLKFLESEFSSENLRFWLAVEDLKKRPIKEVPSRVQEIWQEFLAPGAPSAINLDSKSYDKTTQNVKEPGRYTFEDAQEHIYKLMKSDSYPRFIRSSAYQELLQAKKKSGNSMDRRTSFEKFAQNVGRNIPIFPCHKNCTPTLRASTNLL | appeared to consume GTP |
| RGS2: regulator of G protein signaling protein (protein, UniProt P41220 1-211, looked up) Regulator of G-protein …: MQSAMFLAVQHDCRPMDKSAGSGHKSEEKREKMKRTLLKDWKTRLSYFLQNSSTPGKPKTGKKSKQQAFIKPSPEEAQLWSEAFDELLASKYGLAAFRAFLKSEFCEENIEFWLACEDFKKTKSPQKLSSKARKIYTDFIEKEAPKEINIDFQTKTLIAQNIQEATSGCFTTAQKRVYSLMENNSYPRFLESEFYQDLCKKPQITTEPHAT | did not |
